Assay results reported in US20200087367A1 (ACCELERON PHARMA, published 2020).

Target: T1, hENG(26-437)-hFc (human, UniProt P17813 26-437)
T1 construct: HEK 293, purified; not shown: linker and human IgG1 Fc domain
T1 sequence: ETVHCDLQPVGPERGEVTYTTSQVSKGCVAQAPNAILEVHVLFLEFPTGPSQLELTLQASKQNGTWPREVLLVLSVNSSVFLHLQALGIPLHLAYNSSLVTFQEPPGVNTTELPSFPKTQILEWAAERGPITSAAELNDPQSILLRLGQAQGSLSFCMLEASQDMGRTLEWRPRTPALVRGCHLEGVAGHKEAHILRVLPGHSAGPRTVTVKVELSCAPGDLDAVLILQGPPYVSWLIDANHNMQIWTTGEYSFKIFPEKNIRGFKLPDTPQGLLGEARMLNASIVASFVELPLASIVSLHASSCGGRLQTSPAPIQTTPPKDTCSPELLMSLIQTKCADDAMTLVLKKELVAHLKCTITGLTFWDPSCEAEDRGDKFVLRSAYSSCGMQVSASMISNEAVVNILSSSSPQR
Assay: SPR kinetics; HEK293-cell-derived protein

B1: BMP9 (ligand, human, UniProt Q9UK05 320-429, looked up)
chain: SAGAGSHCQKTSLRVNFEDIGWDSWIIAPKEYEAYECKGGCFFPLADDVTPTKHAIVQTLVHLKFPTKVGKACCVPTKLSPISVLYKDDMGVPTLKYHYEGMSVAECGCR
notes: also called hBMP-9; hBMP9
Kd: 19 pM
koff: 0.0014 s⁻¹
